Experimental data published in publication PMC9891525 (PLOS Pathogens, 2023).

B1: purified monoclonal antibody d7 (S97Y, D54I, N57H) (antibody, V domains shown)
VH: QVQLVESGGGVVQPGRSLRLSCAASGFTFSNYAMYWVRQAPGKGLEWVAVISYIGSHKYYADSVKGRFTISRDNSKNTLYLQMNSLRTEDTAVYYCASGSDYGDYLLVYWGQGTLVTVSS
VL: QSALTQPASVSGSPGQSITISCTGTSSDVGGYNYVSWYQQHPGKAPKLMIYDVSKRPSGVSNRFSGSKSGNTASLTISGLQSEDEADYYCNSLTSIYTWVFGGGTKLTVL
B2: purified monoclonal antibody d9 (S97Y, D54L, N57H) (antibody, V domains shown)
VH: QVQLVESGGGVVQPGRSLRLSCAASGFTFSNYAMYWVRQAPGKGLEWVAVISYLGSHKYYADSVKGRFTISRDNSKNTLYLQMNSLRTEDTAVYYCASGSDYGDYLLVYWGQGTLVTVSS
VL: QSALTQPASVSGSPGQSITISCTGTSSDVGGYNYVSWYQQHPGKAPKLMIYDVSKRPSGVSNRFSGSKSGNTASLTISGLQSEDEADYYCNSLTSIYTWVFGGGTKLTVL
B3: purified monoclonal antibody A3 (N57A, L106N) (antibody, V domains shown)
VH: QVQLVESGGGVVQPGRSLRLSCAASGFTFSNYAMYWVRQAPGKGLEWVAVISYDGSAKYYADSVKGRFTISRDNSKNTLYLQMNSLRTEDTAVYYCASGSDYGDYNLVYWGQGTLVTVSS
VL: QSALTQPASVSGSPGQSITISCTGTSSDVGGYNYVSWYQQHPGKAPKLMIYDVSKRPSGVSNRFSGSKSGNTASLTISGLQSEDEADYYCNSLTSISTWVFGGGTKLTVL

Target: SARS-CoV-2 WT spike RBD (SARS-CoV-2, wild type, UniProt P0DTC2)
Assay: SPR; Biacore 2000; […]; 45 μL/min, 180 s binding, […] dissociation; 1:1 binding model
Conditions: both partners purified

| Binder | Kd [nM] | other [times] |
| --- | --- | --- |
| B1 | 0.15 | 3 |
| B2 | 0.17 | 3 |
| B3 | 0.17 | 3 |
